Measurements published in patent US20250064909A1 (MEDIMABBIO, published 2025).

T1: recombinant human TIGIT (Sino Biological) (human, UniProt Q495A1 22-138)
T1 construct: Bought protein; NP_776160.2; also called human TIGIT antigen; hTIGIT
T1 sequence: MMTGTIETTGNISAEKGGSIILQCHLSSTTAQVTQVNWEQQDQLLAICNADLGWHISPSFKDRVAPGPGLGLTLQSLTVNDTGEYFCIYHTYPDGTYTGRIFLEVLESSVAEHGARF


What was measured:
[1] = molecular target: T1, recombinant human TIGIT (Sino …); assay: SPR single cycle kinetics; KD divided by KD of the VH0/Vκ0 chimeric antibody;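 also: biacore T200 SPR at 25 °C, IgG captured on anti-human chip, TIGIT analyte in four rising concentrations, 210 s association each, 900 s dissociation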
Procedure: (§1) The kinetic test was conducted at 25° C. using the Biacore T200 running Biacore T200 Control software V2.0.1 and Evaluation software V3.0 (GE Healthcare, Uppsala, Sweden).
(§2) To reduce non-specific binding to the reference surface, HBS-P+ (GE Healthcare, Uppsala, Sweden) supplemented with 1% BSA w/v (Sigma, Dorset, UK) was used as the running buffer and was also used for dilution of ligand and analyte. The supernatant containing IgG was diluted in the running buffer to 1 μg/mL. At the beginning of each cycle, the antibody was loaded onto Fc2, Fc3, and Fc4 on the anti-human sensor chip (GE Healthcare, Little Chalfont, UK). […] Then, the surface was allowed to stabilize.
(§3) To minimize potential mass transfer effects, recombinant human TIGIT (from Sino Biological) was used as the analyte and injected at a flow rate of 40 μl/min to obtain Single cycle kinetic data. […] For each of the four increasing antigen concentrations, the association phases were monitored for 210 seconds, and after the last antigen injection, a single dissociation phase was measured for 900 seconds. The sensor chip surface was regenerated by a single injection of 3 M MgCl₂.

[2] = molecular target: T1, recombinant human TIGIT (Sino …); assay: SPR (Biacore T200), single cycle kinetics, IgG from supernatant captured on anti-human chip, TIGIT as analyte, 1:1 fit;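 also: measured at 25 °C in HBS-P+ with 1% BSA, four ascending TIGIT concentrations, 210 s association per step, one final 900 s dissociation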
Procedure: as §1, §2, §3

Relative KD [1]	Kd [2] [nM]	koff [2] [s⁻¹]	kon [2] [M⁻¹ s⁻¹]	Binder
1.38	0.903	0.0015	1.66e+06	7A6 VH3/Vκ3 humanized antibody (human IgG1, kappa) (antibody, V domains shown, Tested as IgG in supernatant of transiently transfected HEK293 EBNA cells) VH: QVQLQESGPGLVKPSQTLSLTCTVTGYSITSDYAWNWIRQPPGKGLEWMGYISYSGSARYNPSLKSRVTISRDTSKNQFSLKLSSVTAEDTATYYCARKGYPAYFAYWGQGTLVTVSS VL: DIQMTQSPSSLSASVGDRVSITCKASQDVSTAVAWYQQKPGQAPRLLIYSASYRYTGVPDRFSGSGSGTDFTLTISSLQAEDVAVYYCQHHYSTPYTFGQGTKLEIKR
1.63	1.06	0.00185	1.75e+06	7A6 VH4/Vκ2 humanized antibody (human IgG1, kappa) (antibody, V domains shown, Tested as IgG in supernatant of transiently transfected HEK293 EBNA cells) VH: QVQLQESGPGLVKPSQTLSLTCTVTGYSITSDYAWNWIRQPPGKGLEWMGYISYSGSARYNPSLKSRVTISRDTSKNQFSLKLSSVTAADTAVYYCARKGYPAYFAYWGQGTLVTVSS VL: DIVMTQSPSSLSASVGDRVSITCKASQDVSTAVAWYQQKPGQAPRLLIYSASYRYTGVPDRFTGSGSGTDFTLTISSLQAEDVAVYYCQHHYSTPYTFGQGTKLEIKR
1.1	0.717	0.00129	1.8e+06	7A6 VH1/Vκ5 humanized antibody (human IgG1, kappa) (antibody, V domains shown, Tested as IgG in supernatant of transiently transfected HEK293 EBNA cells) VH: DVQLQESGPGLVKPSQTLSLTCTVTGYSITSDYAWNWIRQPPGKGLEWMGYISYSGSARYNPSLKSRITISRDTSMNQFSLKLNSVTAEDTATYYCARKGYPAYFAYWGQGTLVTVSS VL: DIQMTQSPSSLSASVGDRVSITCKASQDVSTAVAWYQQKPGQAPRLLIYSASYRYTGVPDRFSGSGSGTDFTLTISSLQPEDFATYYCQHHYSTPYTFGQGTKLEIKR
1.58	1.03	0.00181	1.75e+06	7A6 VH2/Vκ4 humanized antibody (human IgG1, kappa) (antibody, V domains shown, Tested as IgG in supernatant of transiently transfected HEK293 EBNA cells) VH: DVQLQESGPGLVKPSQTLSLTCTVTGYSITSDYAWNWIRQPPGKGLEWMGYISYSGSARYNPSLKSRITISRDTSKNQFSLKLSSVTAEDTATYYCARKGYPAYFAYWGQGTLVTVSS VL: DIQMTQSPSSLSASVGDRVTITCRASQDVSTAVAWYQQKPGQAPRLLIYSASYRYTGVPDRFSGSGSGTDFTLTISSLQAEDVAVYYCQHHYSTPYTFGQGTKLEIKR
1.24	0.811	0.00146	1.8e+06	7A6 VH1/Vκ2 humanized antibody (human IgG1, kappa) (antibody, V domains shown, Tested as IgG in supernatant of transiently transfected HEK293 EBNA cells) VH: DVQLQESGPGLVKPSQTLSLTCTVTGYSITSDYAWNWIRQPPGKGLEWMGYISYSGSARYNPSLKSRITISRDTSMNQFSLKLNSVTAEDTATYYCARKGYPAYFAYWGQGTLVTVSS VL: DIVMTQSPSSLSASVGDRVSITCKASQDVSTAVAWYQQKPGQAPRLLIYSASYRYTGVPDRFTGSGSGTDFTLTISSLQAEDVAVYYCQHHYSTPYTFGQGTKLEIKR
1.47	0.961	0.00158	1.65e+06	7A6 VH2/Vκ2 humanized antibody (human IgG1, kappa) (antibody, V domains shown, Tested as IgG in supernatant of transiently transfected HEK293 EBNA cells) VH: DVQLQESGPGLVKPSQTLSLTCTVTGYSITSDYAWNWIRQPPGKGLEWMGYISYSGSARYNPSLKSRITISRDTSKNQFSLKLSSVTAEDTATYYCARKGYPAYFAYWGQGTLVTVSS VL: DIVMTQSPSSLSASVGDRVSITCKASQDVSTAVAWYQQKPGQAPRLLIYSASYRYTGVPDRFTGSGSGTDFTLTISSLQAEDVAVYYCQHHYSTPYTFGQGTKLEIKR
1.34	0.876	0.00167	1.91e+06	7A6 VH1/Vκ4 humanized antibody (human IgG1, kappa) (antibody, V domains shown, Tested as IgG in supernatant of transiently transfected HEK293 EBNA cells) VH: DVQLQESGPGLVKPSQTLSLTCTVTGYSITSDYAWNWIRQPPGKGLEWMGYISYSGSARYNPSLKSRITISRDTSMNQFSLKLNSVTAEDTATYYCARKGYPAYFAYWGQGTLVTVSS VL: DIQMTQSPSSLSASVGDRVTITCRASQDVSTAVAWYQQKPGQAPRLLIYSASYRYTGVPDRFSGSGSGTDFTLTISSLQAEDVAVYYCQHHYSTPYTFGQGTKLEIKR
1.98	1.29	0.00192	1.49e+06	7A6 VH4/Vκ4 humanized antibody (human IgG1, kappa) (antibody, V domains shown, also called 7A6 VH4/Vk4; 7A6VH4/Vk4) VH: QVQLQESGPGLVKPSQTLSLTCTVTGYSITSDYAWNWIRQPPGKGLEWMGYISYSGSARYNPSLKSRVTISRDTSKNQFSLKLSSVTAADTAVYYCARKGYPAYFAYWGQGTLVTVSS VL: DIQMTQSPSSLSASVGDRVTITCRASQDVSTAVAWYQQKPGQAPRLLIYSASYRYTGVPDRFSGSGSGTDFTLTISSLQAEDVAVYYCQHHYSTPYTFGQGTKLEIKR
1.48	0.963	0.00182	1.89e+06	7A6 VH1/Vκ3 humanized antibody (human IgG1, kappa) (antibody, V domains shown, Tested as IgG in supernatant of transiently transfected HEK293 EBNA cells) VH: DVQLQESGPGLVKPSQTLSLTCTVTGYSITSDYAWNWIRQPPGKGLEWMGYISYSGSARYNPSLKSRITISRDTSMNQFSLKLNSVTAEDTATYYCARKGYPAYFAYWGQGTLVTVSS VL: DIQMTQSPSSLSASVGDRVSITCKASQDVSTAVAWYQQKPGQAPRLLIYSASYRYTGVPDRFSGSGSGTDFTLTISSLQAEDVAVYYCQHHYSTPYTFGQGTKLEIKR
1.1	0.715	0.00168	2.36e+06	7A6 VH2/Vκ1 humanized antibody (human IgG1, kappa) (antibody, V domains shown, Tested as IgG in supernatant of transiently transfected HEK293 EBNA cells) VH: DVQLQESGPGLVKPSQTLSLTCTVTGYSITSDYAWNWIRQPPGKGLEWMGYISYSGSARYNPSLKSRITISRDTSKNQFSLKLSSVTAEDTATYYCARKGYPAYFAYWGQGTLVTVSS VL: DIVMTQSHSFLSASVGDRVSITCKASQDVSTAVAWYQQKPGQAPELLIYSASYRYTGVPDRFTGSGSGTDFTLTISSLQAEDVAVYYCQHHYSTPYTFGQGTKLEMKR
1.48	0.963	0.00173	1.8e+06	7A6 VH3/Vκ2 humanized antibody (human IgG1, kappa) (antibody, V domains shown, Tested as IgG in supernatant of transiently transfected HEK293 EBNA cells) VH: QVQLQESGPGLVKPSQTLSLTCTVTGYSITSDYAWNWIRQPPGKGLEWMGYISYSGSARYNPSLKSRVTISRDTSKNQFSLKLSSVTAEDTATYYCARKGYPAYFAYWGQGTLVTVSS VL: DIVMTQSPSSLSASVGDRVSITCKASQDVSTAVAWYQQKPGQAPRLLIYSASYRYTGVPDRFTGSGSGTDFTLTISSLQAEDVAVYYCQHHYSTPYTFGQGTKLEIKR
1.1	0.715	0.00155	2.17e+06	7A6 VH3/Vκ1 humanized antibody (human IgG1, kappa) (antibody, V domains shown, Tested as IgG in supernatant of transiently transfected HEK293 EBNA cells) VH: QVQLQESGPGLVKPSQTLSLTCTVTGYSITSDYAWNWIRQPPGKGLEWMGYISYSGSARYNPSLKSRVTISRDTSKNQFSLKLSSVTAEDTATYYCARKGYPAYFAYWGQGTLVTVSS VL: DIVMTQSHSFLSASVGDRVSITCKASQDVSTAVAWYQQKPGQAPELLIYSASYRYTGVPDRFTGSGSGTDFTLTISSLQAEDVAVYYCQHHYSTPYTFGQGTKLEMKR
1.38	0.897	0.00134	1.49e+06	7A6 VH2/Vκ3 humanized antibody (human IgG1, kappa) (antibody, V domains shown, Tested as IgG in supernatant of transiently transfected HEK293 EBNA cells) VH: DVQLQESGPGLVKPSQTLSLTCTVTGYSITSDYAWNWIRQPPGKGLEWMGYISYSGSARYNPSLKSRITISRDTSKNQFSLKLSSVTAEDTATYYCARKGYPAYFAYWGQGTLVTVSS VL: DIQMTQSPSSLSASVGDRVSITCKASQDVSTAVAWYQQKPGQAPRLLIYSASYRYTGVPDRFSGSGSGTDFTLTISSLQAEDVAVYYCQHHYSTPYTFGQGTKLEIKR
1.45	0.944	0.00175	1.85e+06	7A6 VH4/Vκ3 humanized antibody (human IgG1, kappa) (antibody, V domains shown, Tested as IgG in supernatant of transiently transfected HEK293 EBNA cells) VH: QVQLQESGPGLVKPSQTLSLTCTVTGYSITSDYAWNWIRQPPGKGLEWMGYISYSGSARYNPSLKSRVTISRDTSKNQFSLKLSSVTAADTAVYYCARKGYPAYFAYWGQGTLVTVSS VL: DIQMTQSPSSLSASVGDRVSITCKASQDVSTAVAWYQQKPGQAPRLLIYSASYRYTGVPDRFSGSGSGTDFTLTISSLQAEDVAVYYCQHHYSTPYTFGQGTKLEIKR
0.85	0.554	0.00129	2.33e+06	7A6 VH1/Vκ1 humanized antibody (human IgG1, kappa) (antibody, V domains shown, Tested as IgG in supernatant of transiently transfected HEK293 EBNA cells) VH: DVQLQESGPGLVKPSQTLSLTCTVTGYSITSDYAWNWIRQPPGKGLEWMGYISYSGSARYNPSLKSRITISRDTSMNQFSLKLNSVTAEDTATYYCARKGYPAYFAYWGQGTLVTVSS VL: DIVMTQSHSFLSASVGDRVSITCKASQDVSTAVAWYQQKPGQAPELLIYSASYRYTGVPDRFTGSGSGTDFTLTISSLQAEDVAVYYCQHHYSTPYTFGQGTKLEMKR
1.84	1.2	0.00196	1.63e+06	7A6 VH3/Vκ4 humanized antibody (human IgG1, kappa) (antibody, V domains shown, Tested as IgG in supernatant of transiently transfected HEK293 EBNA cells) VH: QVQLQESGPGLVKPSQTLSLTCTVTGYSITSDYAWNWIRQPPGKGLEWMGYISYSGSARYNPSLKSRVTISRDTSKNQFSLKLSSVTAEDTATYYCARKGYPAYFAYWGQGTLVTVSS VL: DIQMTQSPSSLSASVGDRVTITCRASQDVSTAVAWYQQKPGQAPRLLIYSASYRYTGVPDRFSGSGSGTDFTLTISSLQAEDVAVYYCQHHYSTPYTFGQGTKLEIKR
1.16	0.754	0.0013	1.72e+06	7A6 VH2/Vκ5 humanized antibody (human IgG1, kappa) (antibody, V domains shown, Tested as IgG in supernatant of transiently transfected HEK293 EBNA cells) VH: DVQLQESGPGLVKPSQTLSLTCTVTGYSITSDYAWNWIRQPPGKGLEWMGYISYSGSARYNPSLKSRITISRDTSKNQFSLKLSSVTAEDTATYYCARKGYPAYFAYWGQGTLVTVSS VL: DIQMTQSPSSLSASVGDRVSITCKASQDVSTAVAWYQQKPGQAPRLLIYSASYRYTGVPDRFSGSGSGTDFTLTISSLQPEDFATYYCQHHYSTPYTFGQGTKLEIKR
0.94	0.616	0.00107	1.73e+06	7A6 VH4/Vκ1 humanized antibody (human IgG1, kappa) (antibody, V domains shown, Tested as IgG in supernatant of transiently transfected HEK293 EBNA cells) VH: QVQLQESGPGLVKPSQTLSLTCTVTGYSITSDYAWNWIRQPPGKGLEWMGYISYSGSARYNPSLKSRVTISRDTSKNQFSLKLSSVTAADTAVYYCARKGYPAYFAYWGQGTLVTVSS VL: DIVMTQSHSFLSASVGDRVSITCKASQDVSTAVAWYQQKPGQAPELLIYSASYRYTGVPDRFTGSGSGTDFTLTISSLQAEDVAVYYCQHHYSTPYTFGQGTKLEMKR
